Reference: the supplement of paper PMC9732359
± gives the uncertainty stated by the source.

Assay: protein stability index of a GFP-peptide fusion (yeast GPS) (PSI 1-4); higher = more stable; sorted into four equal gates, so the index is relative within each strain
Method in brief: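 For each peptide, the protein stability index sums the read frequency in every gate after multiplying it by the gate number. Read frequencies came from plasmids that were PCR-amplified from each gate and Illumina-sequenced, with reads assigned to strains by barcodes. The gates were four equal bins of GFP/Cherry fluorescence ratio applied to mid-log yeast in leucine-free medium carrying a pooled library of tiled 17-residue yeast protein peptides fused downstream of GFP on a Cherry-expressing plasmid.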

Sequence	protein stability index (doa10∆)	protein stability index (pdr5∆)	protein stability index (san1∆)	protein stability index (ubr1∆)
LLDVVKGTEASNDIIDK [YDL116W/NUP84]	2.08 ± 0.19	2.51 ± 0.14	1.92 ± 0.15	1.47 ± 0.041
LLHETNDSFKGLITNKM [PRP8]	3 ± 0.16	2.8 ± 0.071	3.06 ± 0.12	3.24 ± 0.12
LLHNHLKSIESLKLENS [SMC2]	1.4 ± 0.1	1.82 ± 0.11	1.24 ± 0.28	2.52 ± 0.21
LLIATNLKEYNKFMSIF [SRB8]	1.64 ± 0.051	1.82 ± 0.089	2.17 ± 0.2	1.94 ± 0.086
LLISDTESNELIQKLQN [IRR1]	2.79 ± 0.076	2.85 ± 0.084	2.38 ± 0.073	2.9 ± 0.084
LLKYSNETKKRNFLETV [RPL1A]	3 ± 0.25	2.72 ± 0.23		
LLNKNTGNNLYDRNSNN [SWI1]	2.79 ± 0.065	2.85 ± 0.06	2.7 ± 0.064	2.9 ± 0.038
LLPLVVSNISCLTGTVA [ECM29]	1.25 ± 0.041	1.38 ± 0.034	1.38 ± 0.094	1.45 ± 0.037
LLQGGAKVVVTTSRFSK [FAS2]	2.72 ± 0.077	2.43 ± 0.068	2.72 ± 0.056	2.78 ± 0.047
LLSIKLPGKVNTKEEFA [SNF5]	2.15 ± 0.17	1.82 ± 0.083	1.78 ± 0.16	2.51 ± 0.23
LLSKKHGQLKLSIQYMI [RPN5]	1.43 ± 0.046	1.96 ± 0.053	1.36 ± 0.094	1.65 ± 0.053
LLTCYELEKKYHGNECE [SRB8]	2.71 ± 0.082	3 ± 0.061	3.3 ± 0.068	3.21 ± 0.055
LLVKFIKFFWNNTHVGR [YLR018C/POM34]	2.97 ± 0.22	2.48 ± 0.085	2.51 ± 0.085	2.66 ± 0.095
LLVVIFKKTLRSRISSP [SRB4]	1.53 ± 0.085	1.66 ± 0.094	1.77 ± 0.13	1.95 ± 0.11
LMKKACYVGLLTAIPIL [SNU114]	1.55 ± 0.035	1.45 ± 0.036	1.53 ± 0.054	1.66 ± 0.032
LMNGVKPFKSFLKKNII [FAS1]			3.36 ± 0.16	3.27 ± 0.087
LMYATDWQMMTSPVTGA [CSL4]	2.85 ± 0.15	3.21 ± 0.2		2.79 ± 0.28
LNAINNAEKTGKRQVLL [RPS22B]	3.35 ± 0.066	3.24 ± 0.078	3.26 ± 0.072	3.17 ± 0.05
LNFSTTAPANTTDANGS [MED2]	2.06 ± 0.061	2.08 ± 0.051	2.58 ± 0.056	2.78 ± 0.057
LNIGLGAVGLKDLTLCR [YCS4]	2.3 ± 0.079	2.41 ± 0.1	2.15 ± 0.095	2.53 ± 0.056
LNLDEIVACELILSGDT [YJL039C/NUP192]	2.64 ± 0.08	2.7 ± 0.084	3.05 ± 0.096	2.6 ± 0.12
LNLNNSELQPQNRSLQE [SNF2]	3.24 ± 0.046	3.31 ± 0.057	3.31 ± 0.08	3.27 ± 0.055
LNPNEYFSVTTARRNVS [SWI3]	1.64 ± 0.072	1.67 ± 0.082	1.85 ± 0.14	2.19 ± 0.076
LNQIATLKIHLKKFLQE [IRR1]	2.17 ± 0.18	1.91 ± 0.22		
LNQLDGFETSKNIKIIM [RPT6]	2.39 ± 0.25	2.62 ± 0.22	2.74 ± 0.14	2.7 ± 0.18
LNRIKKYLLTQRVFKPV [PRP8]	2.22 ± 0.075	2.25 ± 0.072	2.33 ± 0.096	2.48 ± 0.069
LPEQLKSGKFCSHCGCV [SNM1]	2.79 ± 0.084	3.11 ± 0.15	2.89 ± 0.076	2.7 ± 0.071

Sequence	protein stability index (doa10∆)	protein stability index (pdr5∆)	protein stability index (san1∆)	protein stability index (ubr1∆)
LPIYDSLMSSQNKLFYI [SIR3]	2.15 ± 0.14	2.01 ± 0.14		1.38 ± 0.093
LPKIKTVRKSIACVLTV [RPL35A]	1.98 ± 0.28	2.79 ± 0.18		2.17 ± 0.14
LPKVRYNVEKVKRLMDF [NSL1]	1.8 ± 0.07	2.38 ± 0.065	1.96 ± 0.13	2.15 ± 0.081
LPLNKPRLEKLINEILL [RGR1]	2.53 ± 0.051	2.33 ± 0.041	2 ± 0.077	2.48 ± 0.041
LPTTVVSNPGDNPPPAD [MED2]	3.02 ± 0.046	2.95 ± 0.052	3.04 ± 0.051	3.11 ± 0.037
LPTVGFDFIKDNETPSK [YOR098C/NUP1]	3.15 ± 0.093	3.2 ± 0.056	3.08 ± 0.068	3.27 ± 0.053
LPVKEFQIIDTLLPGLQ [RPS2]	2.35 ± 0.15	1.83 ± 0.059	1.95 ± 0.089	1.5 ± 0.063
LPVKHPELFESLGIAQP [RPT6]	2.65 ± 0.074	3.01 ± 0.039	2.55 ± 0.077	2.73 ± 0.054
LPVNIRRIIQNAQQTFH [RPO21]	2 ± 0.053	2.01 ± 0.05	2.64 ± 0.075	1.56 ± 0.051
LQIESVTKETVHPRKSY [PRP8]		3.02 ± 0.13	2.97 ± 0.054	3.11 ± 0.11
LQIGDVVERHLEDGDVV [RPO31]	3.38 ± 0.088	3.43 ± 0.095	3.49 ± 0.069	3.39 ± 0.098
LQKQILTVENKLQFETD [SMC1]	2.6 ± 0.069	2.37 ± 0.052	2.55 ± 0.047	2.9 ± 0.046
LQKVENQTIKEAKDAII [YIL149C/MLP2]	3.05 ± 0.046	3.18 ± 0.047	3.04 ± 0.045	3.13 ± 0.034
LQMYSKIRRHPNIMLIF [FAS1]	1.72 ± 0.039	2.01 ± 0.042	1.97 ± 0.08	1.91 ± 0.034
LQRDLFIRLPHWPLNWY [RGR1]	2.05 ± 0.095	2.15 ± 0.061	2.11 ± 0.082	2.11 ± 0.076
LQVSEKDLFELERYYKE [ARP7]	3.14 ± 0.085	3.23 ± 0.077	3.48 ± 0.14	3.46 ± 0.065
LQWHAMIELICSSATVP [AAR2]	1.55 ± 0.084	1.69 ± 0.073	1.59 ± 0.11	1.75 ± 0.057
LQYANNAVISHANAAAV [SIN4]	1.83 ± 0.047	1.99 ± 0.041	1.91 ± 0.049	1.92 ± 0.03
LRDHALSLTAFTKNEEK [ITC1]	1.42 ± 0.042	1.76 ± 0.047	1.38 ± 0.076	1.86 ± 0.046
LREAPADYWTHAYRDVL [SNF6]	2.55 ± 0.12	2.7 ± 0.1	3.42 ± 0.17	2.38 ± 0.061
LREEIFIANEGVHTGQF [RPL2A]	2.8 ± 0.084	2.84 ± 0.074	2.92 ± 0.06	3.03 ± 0.059
LREFRITHNTNITDNLF [GRR1]	1.32 ± 0.15	1.28 ± 0.15		2.07 ± 0.11
LRIVTHLAICLDIINPG [YDL116W/NUP84]	1.61 ± 0.08	1.38 ± 0.083	1.57 ± 0.095	1.82 ± 0.067
LRKQYSAIDEEIEELID [SMC3]		2.98 ± 0.2		3.26 ± 0.2
LRLDGHTKSDERSELLR [SNF2]	3.24 ± 0.081	3.18 ± 0.084	3.38 ± 0.079	3.33 ± 0.078
LRLGRGINPNTFRIFHN [YDL088C/ASM4]	2.39 ± 0.062	1.88 ± 0.071	1.86 ± 0.11	1.65 ± 0.038
LRLPFSAAMSIDKLSDV [PRP8]	2.43 ± 0.053	2.42 ± 0.038	2.24 ± 0.048	2.3 ± 0.033
